B1: Formin-binding protein 4, residues 200 to 261; numbered along this chain, Q8N3X1 (parent)
chain: SGWQYDTQCSLAGVGIEMGDWQEVWDENTGCYYYWNTQTNEVTWELPQYLATQVQGLQHYQP

± gives the uncertainty stated by the source.

The variants in the series derive from B1. The series can be described thus: abundance fitness (aPCA) (normalised: wild type 0, dead -1); higher = more abundant; growth selection in yeast, the domain comes from the species named. Conditions: Homo sapiens.
SGWQYDTQCSLAGVGIEMGDWQEGWDENTGCYYYWNTQTNEVTWELPQYLATQVQGLQHYQP [V24G]: the abundance fitness was -0.269 ± 0.075.
SGWQYDTQCSLAGVGIEMGDWQEIWDENTGCYYYWNTQTNEVTWELPQYLATQVQGLQHYQP [V24I]: the abundance fitness was -0.399 ± 0.18.
In the case of SGWQYDTQCSLAGVGIEMGDWQETWDENTGCYYYWNTQTNEVTWELPQYLATQVQGLQHYQP [V24T], the abundance fitness is -0.036 ± 0.11.
Next, SGWQYDTQCSLAGVGIEMGDWQEDWDENTGCYYYWNTQTNEVTWELPQYLATQVQGLQHYQP [V24D]: -0.215 ± 0.14.
As to SGWQYDTQCSLAGVGIEMGDWQELWDENTGCYYYWNTQTNEVTWELPQYLATQVQGLQHYQP [V24L], the abundance fitness was -0.074 ± 0.07.
Next, SGWQYDTQCSLAGVGIEMGDWQEPWDENTGCYYYWNTQTNEVTWELPQYLATQVQGLQHYQP [V24P]: -1.05 ± 0.32; SGWQYDTQCSLAGVGIEMGDWQEQWDENTGCYYYWNTQTNEVTWELPQYLATQVQGLQHYQP [V24Q]: 0.097 ± 0.096; SGWQYDTQCSLAGVGIEMGDWQEWWDENTGCYYYWNTQTNEVTWELPQYLATQVQGLQHYQP [V24W]: -0.437 ± 0.096.
Then SGWQYDTQCSLAGVGIEMGDWQERWDENTGCYYYWNTQTNEVTWELPQYLATQVQGLQHYQP [V24R], with -0.145 ± 0.059; and SGWQYDTQCSLAGVGIEMGDWQEMWDENTGCYYYWNTQTNEVTWELPQYLATQVQGLQHYQP [V24M], with -0.361 ± 0.14; and SGWQYDTQCSLAGVGIEMGDWQEHWDENTGCYYYWNTQTNEVTWELPQYLATQVQGLQHYQP [V24H], with -0.163 ± 0.13.
Consider SGWQYDTQCSLAGVGIEMGDWQEAWDENTGCYYYWNTQTNEVTWELPQYLATQVQGLQHYQP [V24A], for which the abundance fitness is -0.409 ± 0.11.
Next, SGWQYDTQCSLAGVGIEMGDWQENWDENTGCYYYWNTQTNEVTWELPQYLATQVQGLQHYQP [V24N]: -0.257 ± 0.15; SGWQYDTQCSLAGVGIEMGDWQEYWDENTGCYYYWNTQTNEVTWELPQYLATQVQGLQHYQP [V24Y]: -0.145 ± 0.13.
SGWQYDTQCSLAGVGIEMGDWQEFWDENTGCYYYWNTQTNEVTWELPQYLATQVQGLQHYQP [V24F]: the abundance fitness was -0.168 ± 0.14.
On to SGWQYDTQCSLAGVGIEMGDWQEEWDENTGCYYYWNTQTNEVTWELPQYLATQVQGLQHYQP [V24E], for which the abundance fitness is -0.217 ± 0.1.
Next, SGWQYDTQCSLAGVGIEMGNWQEVWDENTGCYYYWNTQTNEVTWELPQYLATQVQGLQHYQP [D20N]: -0.264 ± 0.15; SGWQYDTQCSLAGVGIEMGTWQEVWDENTGCYYYWNTQTNEVTWELPQYLATQVQGLQHYQP [D20T]: -0.339 ± 0.079; SGWQYDTQCSLAGVGIEMGQWQEVWDENTGCYYYWNTQTNEVTWELPQYLATQVQGLQHYQP [D20Q]: -0.287 ± 0.091.
As to SGWQYDTQCSLAGVGIEMGLWQEVWDENTGCYYYWNTQTNEVTWELPQYLATQVQGLQHYQP [D20L], the abundance fitness was -0.383 ± 0.058.
For the variant SGWQYDTQCSLAGVGIEMGWWQEVWDENTGCYYYWNTQTNEVTWELPQYLATQVQGLQHYQP [D20W], the abundance fitness is -0.143 ± 0.084.
Consider SGWQYDTQCSLAGVGIEMGYWQEVWDENTGCYYYWNTQTNEVTWELPQYLATQVQGLQHYQP [D20Y], for which the abundance fitness was -0.217 ± 0.11.
For SGWQYDTQCSLAGVGIEMGVWQEVWDENTGCYYYWNTQTNEVTWELPQYLATQVQGLQHYQP [D20V], the abundance fitness was -0.237 ± 0.06.
SGWQYDTQCSLAGVGIEMGMWQEVWDENTGCYYYWNTQTNEVTWELPQYLATQVQGLQHYQP [D20M]: the abundance fitness was -0.29 ± 0.095.
Consider SGWQYDTQCSLAGVGIEMGSWQEVWDENTGCYYYWNTQTNEVTWELPQYLATQVQGLQHYQP [D20S], for which the abundance fitness was -0.295 ± 0.071.
In the case of SGWQYDTQCSLAGVGIEMGHWQEVWDENTGCYYYWNTQTNEVTWELPQYLATQVQGLQHYQP [D20H], the abundance fitness was -0.043 ± 0.13.
SGWQYDTQCSLAGVGIEMGKWQEVWDENTGCYYYWNTQTNEVTWELPQYLATQVQGLQHYQP [D20K]: the abundance fitness is -0.287 ± 0.11.
Next, SGWQYDTQCSLAGVGIEMGPWQEVWDENTGCYYYWNTQTNEVTWELPQYLATQVQGLQHYQP [D20P]: -0.252 ± 0.082.
Then SGWQYDTQCSLAGVGIEMGRWQEVWDENTGCYYYWNTQTNEVTWELPQYLATQVQGLQHYQP [D20R], with -0.022 ± 0.068; and SGWQYDTQCSLAGVGIEMGIWQEVWDENTGCYYYWNTQTNEVTWELPQYLATQVQGLQHYQP [D20I], with -0.579 ± 0.16; and SGWQYDTQCSLAGVGIEMGDWDEVWDENTGCYYYWNTQTNEVTWELPQYLATQVQGLQHYQP [Q22D], with -0.371 ± 0.16.
Regarding SGWQYDTQCSLAGVGIEMGDWMEVWDENTGCYYYWNTQTNEVTWELPQYLATQVQGLQHYQP [Q22M], the abundance fitness is -0.217 ± 0.1.
Turning to SGWQYDTQCSLAGVGIEMGDWSEVWDENTGCYYYWNTQTNEVTWELPQYLATQVQGLQHYQP [Q22S], the abundance fitness is -0.136 ± 0.072.
Then SGWQYDTQCSLAGVGIEMGDWHEVWDENTGCYYYWNTQTNEVTWELPQYLATQVQGLQHYQP [Q22H], with -0.641 ± 0.21; and SGWQYDTQCSLAGVGIEMGDWWEVWDENTGCYYYWNTQTNEVTWELPQYLATQVQGLQHYQP [Q22W], with -0.61 ± 0.15.
As to SGWQYDTQCSLAGVGIEMGDWTEVWDENTGCYYYWNTQTNEVTWELPQYLATQVQGLQHYQP [Q22T], the abundance fitness is -0.137 ± 0.09.
Next, SGWQYDTQCSLAGVGIEMGDWLEVWDENTGCYYYWNTQTNEVTWELPQYLATQVQGLQHYQP [Q22L]: -0.315 ± 0.072; SGWQYDTQCSLAGVGIEMGDWYEVWDENTGCYYYWNTQTNEVTWELPQYLATQVQGLQHYQP [Q22Y]: -0.586 ± 0.26; SGWQYDTQCSLAGVGIEMGDWPEVWDENTGCYYYWNTQTNEVTWELPQYLATQVQGLQHYQP [Q22P]: -0.905 ± 0.14.
Then SGWQYDTQCSLAGVGIEMGDWNEVWDENTGCYYYWNTQTNEVTWELPQYLATQVQGLQHYQP [Q22N], with -0.023 ± 0.17; and SGWQYDTQCSLAGVGIEMGDWCEVWDENTGCYYYWNTQTNEVTWELPQYLATQVQGLQHYQP [Q22C], with -0.459 ± 0.13; and SGWQYDTQCSLAGVGIEMGDWEEVWDENTGCYYYWNTQTNEVTWELPQYLATQVQGLQHYQP [Q22E], with 0.042 ± 0.19.
As for SGWQYDTQCSLAGVGIEMGDWAEVWDENTGCYYYWNTQTNEVTWELPQYLATQVQGLQHYQP [Q22A], the abundance fitness is -0.121 ± 0.086.

The record behind these values is the Human Domainome abundance scans (Beltran et al. 2025).
